The subject of one test is hypothalamic Stat3. Nature of the test: Phospho-Stat3 immunohistochemistry of hypothalamus after leptin. The test is classed as in vivo, mouse. Conditions: wild-type mice, leptin 1.67 μg/g body weight peripheral. The procedure: After overnight fasting, brains of wild-type and PRMT2−/− mice treated with or without mouse leptin (1.67 μg/g body weight) for 90 min were removed immediately after decapitation, frozen in 2-methylbutane with a bed of crushed dry ice for 6 sec. 16-μm thick coronal sections were cut on a cryostat at −20° C. and were thaw-mounted on slides (K•D Medical Inc., Columbia, Md.). Sections were fixed with acetone for 10 min at 4° C. and then incubated in methanol for 30 min at −20° C. After treatment with 0.3% H2O2 in methanol for 30 min at room temperature to block endogenous peroxidase, sections were blocked in Tris-buffered saline (TBS)-Ca (100 mM Tris-HCl, pH 7.4, 150 mM NaCl, 1 mM CaCl2) containing 10% normal goat serum and 3% bovine serum albumin (BSA) and incubated with a rabbit anti-pStat3 (pY705) diluted in the same blocking solution as previously described above overnight at 4° C. On the next day sections were washed three time with TBS-Ca, incubated with a biotinylated secondary goat antibody in TBS-Ca containing 1% BSA for 1 hr at room temperature and then treated with ABC solution (Vector laboratories, Inc., Burlingame, Calif.) for 1 hr. In a final step, the signal was developed by DAB solution (Vector laboratories), giving a brown precipitate, dehydrated and mounted using Permount (Sigma-Aldrich). […]

In test [1] the test system is hypothalamic POMC and NPY mRNA. The experiment in a line: Leptin treatment, hypothalamic POMC and NPY mRNA by real-time PCR. It is filed as in vivo, mouse. The following applies: for weight loss: leptin 0.5 μg/g body weight. The procedure:
Mice in the 8-12 week of age allowed free access to chow and water were intraperitoneally injection for 3 days with either PBS or recombinant mouse leptin (Sigma) at a dose of 0.5 μg/g body weight twice a daily (9:00 am and 7:00 pm). Hypothalamus was isolated from the mice at 6 hr after leptin treatment and snap-frozen. Total hypothalamic RNA was isolated using Trizol (Invitrogen) according to the manufacturer's instructions. Total RNA was treated with ribonuclease-free deoxyribonuclease (DNase) I for 30 min using a commercially available kit (Invitrogen) to eliminate contamination of genomic DNA. The RNA samples were reverse transcribed with TaqMan Reverse Transcription Reagents (Applied Biosystems, Foster City, Calif.) and subjected to automated fluorescent RT-PCR on an ABI PRISM 7700 Sequence Detection System (Applied Biosystems). All TaqMan probes were labeled with the reporter fluorescein at the 5′-end and with the quencher tetramethylrhodamine at the 3′-end. The following oligonucleotides derived form the mouse POMC and NPY were synthesized and used as primers and probes for Real-time PCR: POMC (sense, 5′-[…]-3′ (SEQ ID NO:42), antisense, 5′-[…]-3′ (SEQ ID NO:43), probe, 5′-6FAM-[…]-TAMRA-3′, SEQ ID NO:44); NPY (sense, 5′-[…]-3′ (SEQ ID NO:45), antisense, 5′-[…]-3′ (SEQ ID NO:46) probes, 5′-6FAM-[…]-TAMRA-3′ (SEQ ID NO:47)). TaqMan Rodent GAPDH Control Reagents (Applied Biosystems) were used as a control primers and probe for each template. Each predicted RT-PCR product spanned an intron/exon junction. The reactions were incubated for 2 min at 50° C., followed by 10 min at 95° C., and then 40 cycles of 15 sec at 95° C. and 1 min at 60° C. Each RT-PCR reaction was performed in triplicate in a final volume of 20 μl and assessed by the comparative Ct (ΔΔCt) method (Applied Biosystems, ABI Prism 7700 Users Bulletin #2).
(Real-time PCR tracks product formation cycle by cycle.)

The subject of another test is Stat3. Nature of the test: Leptin-stimulated Stat3 immunoprecipitation and immunoblotting (methylation, PRMT-2 association). The test is classed as cell-based, mouse. The following applies: leptin 100 nM. The procedure: Immunoprecipitation of STAT3 was performed as follows. Cells treated with or without 100 nM mouse leptin for selected times were washed with phosphate buffered saline and lysed in Nonidet P-40 (NP-40) buffer (20 mM Tris-HCl, pH 8.0, 150 mM NaCl, 25 mM EDTA, 1.0% Triton-X, 0.1% SDS, 10% glycerol, 100 mM NaF, 100 mM Na3P2O7, 1.0% deoxycholic acid, 1 mM Na3VO4, 1× protease inhibitors cocktail; Roche Diagnostic Corp., Indianapolis, Ind.) or RIPA buffer (50 mM Tris-HCl, pH 8.0, 150 mM NaCl, 1% NP-40, 0.5% Na-deoxycholate, 0.1% SDS, 1× protease inhibitors cocktail). After the lysates were incubated to solubilize proteins for 30 min at 4° C., and before they were centrifuged at 15,000 rpm for 10 min at 4° C., the supernatants were rocked with either polyclonal anti-STAT3 antibodies (1:2,000) or monoclonal anti-Flag antibodies for 14 hr at 4° C., and then with protein G agarose for 3 hr at 4° C. For in vitro stimulation, the supernatants from extracted tissue homogenates were rocked with 2 μg polyclonal anti-IRS-1 antibody, and then protein G agarose for 3 hr at 4° C. The beads were washed three times with lysis buffer without proteinase inhibitors, solubilized in 15 μl 3×SDS-polyacrylamide gel electrophoresis (PAGE) buffer (187.5 mM Tris-HCl, 6% SDS, 30% glycerol, 150 mM dithiothreitol, 0.3% bromophenol blue, pH6.8), and subjected to the immunoblotting.
Immunoblotting was performed by boiling samples for 5 min at 95° C. followed by centrifugation for 1 min at 4° C. Aliquots of the supernatant were subjected to 7.5, 10% or 4-15% SDS-PAGE. Proteins in the gel were transferred to a nitrocellulose membrane by electroblotting. The membranes were treated with either anti-pTyr, anti-STAT3, anti-phospho STAT3, anti-α-metR, anti-IRS-1, anti-Flag, anti-phospho IRS-1, anti-arginine (mono- and di-methyl), or anti-β-actin antibodies followed by incubation with secondary antibodies conjugated with HRP. Immunoreactive proteins were detected either by ECL or by ECL plus system (Amersham Pharmacia Biotech). In some cases, bands were quantified using the NIH Image software (Image J version 1.2; National Institutes of Health, Bethesda, Md.). The figures are representative of 3 experiments.
A general note: In western blotting, separated proteins are transferred to a membrane and probed.

The nature of test [2]: Leptin sensitivity study in mice. It is filed as in vivo, mouse. The following applies: for food intake: after administration of leptin. On the procedure: To determine leptin sensitivity, 9- to 13-week-old mice, matched for similar body weight at both day 4 and day 0, were individually caged and body weight and food intake were measured once daily (5:30 pm) throughout the experiment. For the first 7 days, mice were injected intraperitoneally twice daily (12:00 pm and 6:00 pm) with PBS to establish a baseline of weight change and food intake. […] Body weight and food intake was measured once a day during the experiment.

B1: leptin: recombinant mouse leptin (Sigma-Aldrich Inc.) (protein, UniProt P41160 22-167, looked up)
Leptin: VPIQKVQDDTKTLIKTIVTRINDISHTQSVSAKQRVTGLDFIPGLHPILSLSKMDQTLAVYQQVLTSLPSQNVLQIANDLENLRDLLHLLAFSKSCSLPQTSGLQKPESLDGVLEASLYSTEVVALSRLQGSLQDILQQLDVSPEC
Consider B1, for which the “time of peak tyrosine phosphorylation of hypothalamic Stat3” value in the test with hypothalamic Stat3 is 45 min. Besides, the “higher level of hypothalamic POMC mRNA compared with leptin-treated wild-type mice” value in test [1] (PRMT2−/− mice, leptin 0.5 μg/g) is on record as approximately 90%. Further, in test [1] (PRMT2−/− mice, leptin 0.5 μg/g), the “hypothalamic NPY mRNA expression” value is given as “significantly reduced”. The weight loss in test [1] (PRMT2−/− mice) is -1.0 ± 0.2 g; in test [1] (wild-type mice), -0.59 ± 0.29 g. In addition, the “increase of hypothalamic POMC mRNA compared with untreated mice” value in test [1] (wild-type mice, leptin 0.5 μg/g) is on record as approximately 53%. Moreover, the “PRMT-2 co-precipitated with STAT3” value in the test with Stat3 (GT1-7 cells) is given as “enhanced that amount PRMT-2 that co-precipitated with STAT3”. For the same molecule, the Stat3 methylation entry in the test with Stat3 (GT1-7 cells) is “remarkably increased at 5 min and sustained for 60 min”; in the test on Stat3 (PRMT2−/− VSMC) it was “increased Stat3 methylation was not observed”; in the test on Stat3 (wild-type VSMC), “evoked a transient methylation of Stat3 at 10 min”. Besides, the food intake is reported as approximately 92% in test [2] (PRMT2−/− mice) and “did not alter food intake” in test [2] (wild-type mice). In addition, the “weight change” value was “continuously lost weight for the duration of the study” in test [2] (PRMT2−/− mice, leptin 0.1 μg/g) and -0.158 g in test [2] (wild-type mice, leptin 0.1 μg/g peripheral injection, for 5 days).

The record behind these values is patent US20060239990A1, “Protein Arginine N-Methyltransferase 2 (PRMT-2)” (priority 2003, published 2006).
